Assay results from patent US20240400657A1 (MorphoSys, published 2024).
Changes are numbered by the printed parent chain.

T1: C5aR expressed on purified human neutrophils (human, UniProt P21730 1-350)
T1 sequence (looked up): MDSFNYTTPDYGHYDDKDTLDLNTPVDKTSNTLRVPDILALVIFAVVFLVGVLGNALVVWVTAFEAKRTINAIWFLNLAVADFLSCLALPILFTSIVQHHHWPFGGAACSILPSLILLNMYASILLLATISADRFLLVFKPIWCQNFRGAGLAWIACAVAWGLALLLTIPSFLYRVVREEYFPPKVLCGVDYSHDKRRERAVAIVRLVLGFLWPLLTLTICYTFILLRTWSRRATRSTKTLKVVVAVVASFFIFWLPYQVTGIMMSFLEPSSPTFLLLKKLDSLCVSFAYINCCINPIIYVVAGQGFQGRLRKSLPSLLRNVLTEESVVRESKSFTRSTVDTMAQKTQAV

T2: engineered version of human C5aR expressed on CHO cells of the PathHunter β-arrestin assay (DiscoveRx) (human, UniProt P21730 1-350)
T2 sequence (looked up): T1 sequence (looked up)

T3: full length human C5aR stably expressed on CHO Flp-In cells (human, UniProt P21730 1-350)
T3 construct: also called human C5aR expressed on CHO cells
T3 sequence: T1 sequence (looked up)

T4: full length cynomolgus C5aR stably expressed on CHO Flp-In cells (cynomolgus monkey (Macaca fascicularis))
T4 chain: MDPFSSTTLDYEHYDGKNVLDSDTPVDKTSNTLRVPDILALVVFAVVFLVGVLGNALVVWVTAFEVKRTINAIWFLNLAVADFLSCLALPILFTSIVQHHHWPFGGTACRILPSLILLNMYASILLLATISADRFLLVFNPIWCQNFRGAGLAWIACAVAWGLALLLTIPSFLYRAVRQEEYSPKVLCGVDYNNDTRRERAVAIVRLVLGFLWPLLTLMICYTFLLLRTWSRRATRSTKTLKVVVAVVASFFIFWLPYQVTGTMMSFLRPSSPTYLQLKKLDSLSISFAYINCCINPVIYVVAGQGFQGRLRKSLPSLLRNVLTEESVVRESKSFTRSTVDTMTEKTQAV

T5: full-length human C3aR expressed on CHO Flp-In cells (human, UniProt Q16581 1-482)
T5 construct: also called C3a anaphylatoxin chemotactic receptor
T5 sequence: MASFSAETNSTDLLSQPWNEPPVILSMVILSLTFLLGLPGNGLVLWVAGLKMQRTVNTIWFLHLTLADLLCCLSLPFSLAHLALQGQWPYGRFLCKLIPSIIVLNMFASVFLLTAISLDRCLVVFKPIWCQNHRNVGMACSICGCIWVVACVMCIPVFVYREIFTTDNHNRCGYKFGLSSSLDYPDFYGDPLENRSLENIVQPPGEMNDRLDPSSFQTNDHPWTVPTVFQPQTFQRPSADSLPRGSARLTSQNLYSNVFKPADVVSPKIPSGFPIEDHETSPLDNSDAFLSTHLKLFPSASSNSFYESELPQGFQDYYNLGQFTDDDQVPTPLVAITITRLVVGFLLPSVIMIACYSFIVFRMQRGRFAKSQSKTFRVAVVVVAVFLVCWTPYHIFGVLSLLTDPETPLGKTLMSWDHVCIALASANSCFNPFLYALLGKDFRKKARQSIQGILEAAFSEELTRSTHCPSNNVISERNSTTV

T6: full-length human ChemR23 expressed on CHO Flp-In cells (human, UniProt Q99788 1-373)
T6 construct: also called Chemokine-like receptor 1
T6 sequence: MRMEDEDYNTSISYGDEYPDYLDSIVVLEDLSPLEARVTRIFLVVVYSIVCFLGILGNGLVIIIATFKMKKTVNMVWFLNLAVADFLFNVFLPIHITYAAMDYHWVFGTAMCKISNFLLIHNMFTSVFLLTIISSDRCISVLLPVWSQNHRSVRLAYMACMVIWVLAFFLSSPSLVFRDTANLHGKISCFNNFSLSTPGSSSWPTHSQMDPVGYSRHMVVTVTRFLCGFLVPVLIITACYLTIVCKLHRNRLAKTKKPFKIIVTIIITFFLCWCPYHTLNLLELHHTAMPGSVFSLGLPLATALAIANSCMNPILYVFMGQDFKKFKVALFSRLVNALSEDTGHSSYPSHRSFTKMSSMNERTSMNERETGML

B1: MAB #2 (antibody, human IgG1, lambda)
heavy: EVQLVESGGGLVKPGGSLRLSCAASGFTFSSYAMHWVRQAPGKGLEWVGRIKSVAQGGTTDYAAHVKGRFTISRDDSKNTLYLQMNSLKTEDTAVYYCARVSHSTFDVWGQGTLVTVSSASTKGPSVFPLAPSSKSTSGGTAALGCLVKDYFPEPVTVSWNSGALTSGVHTFPAVLQSSGLYSLSSVVTVPSSSLGTQTYICNVNHKPSNTKVDKRVEPKSCDKTHTCPPCPAPEAEGAPSVFLFPPKPKDTLMISRTPEVTCVVVDVSHEDPEVKFNWYVDGVEVHNAKTKPREEQYNSTYRVVSVLTVLHQDWLNGKEYKCKVSNKALPSSIEKTISKAKGQPREPQVYTLPPSREEMTKNQVSLTCLVKGFYPSDIAVEWESNGQPENNYKTTPPVLDSDGSFFLYSKLTVDKSRWQQGNVFSCSVMHEALHNHYTQKSLSLSPGK
light: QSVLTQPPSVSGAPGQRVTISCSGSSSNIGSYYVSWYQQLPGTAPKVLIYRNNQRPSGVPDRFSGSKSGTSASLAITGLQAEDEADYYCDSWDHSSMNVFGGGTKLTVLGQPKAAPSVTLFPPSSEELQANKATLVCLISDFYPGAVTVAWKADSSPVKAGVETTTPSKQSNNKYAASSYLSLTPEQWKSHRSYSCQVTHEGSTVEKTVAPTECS
notes: lambda 1 light chain
B2: MAB #1 (antibody, human IgG1, lambda)
heavy: B1 heavy with V54K, H103F
light: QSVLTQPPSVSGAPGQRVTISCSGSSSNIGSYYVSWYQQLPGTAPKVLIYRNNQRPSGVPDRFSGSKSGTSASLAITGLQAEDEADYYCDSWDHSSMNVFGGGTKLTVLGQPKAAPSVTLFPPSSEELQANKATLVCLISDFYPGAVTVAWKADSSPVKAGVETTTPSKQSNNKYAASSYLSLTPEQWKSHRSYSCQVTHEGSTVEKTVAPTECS
notes: lambda 1 light chain, VH3-15 framework

What was measured:
[1] = molecular target: T1, C5aR expressed on purified human …; experiment: cell-based or functional assay
[2] = molecular target: T2, engineered version of human C5aR …; experiment: cell-based or functional assay
[3] = molecular target: T3, full length human C5aR stably expressed …; experiment: FACS on Flp-In CHO cells, IgG titration
Protocol: (§1) The C5aR-CHO Flp-In™ cell lines were blocked and IgGs were added either in serial dilutions or at a single (high) concentration of 300 nM. For detection of IgG binding, an R-phycoerythrin (R-PE) conjugated anti-human IgG (Fc-gamma fragment specific)2 antibody was added and fluorescence was measured using the FACS Array or Novocyte device.

[4] = molecular target: T4, full length cynomolgus C5aR stably …; experiment: FACS on Flp-In CHO cells, IgG titration
Protocol: as §1

Lectin = experiment: Protein Panel Profiling (3P), MSD ECL, coated antigen, IgG 10 nM
Protocol: (§2) 32 different proteins and controls were coated on two 384-well MSD standard plates at a concentration of 1.0 μg/mL at 4° C. over night. The coating solution was discarded and plates were blocked with 50 μL 3% (w/v) BSA in PBS for one hour at RT on a microtiter plate shaker (˜500 rpm) followed by three washing steps with 50 μL washing buffer (PBS with 0.05% (v/v) Tween 20). IgG samples were diluted to 100 nM and 10 nM in assay buffer (PBS with 0.5% (w/v) BSA, 0.05% (v/v) Tween 20). As controls, isotype control antibody MOR03207 (IgG1f_AEASS) and assay buffer were used. Samples and controls were added at 30 μL/well and incubated for three hours at RT on a microtiter plate shaker. The plates were washed three times and 30 μL detection antibody (ECL-labeled anti-human Fab) were added per well and incubated for one hour on a microtiter plate shaker (˜500 rpm). After washing the MSD plate and adding 35 μL/well MSD Read Buffer T with surfactant, electro-chemiluminescence signals were detected using a SECTOR® Imager S600 instrument (Meso Scale Diagnostics).
(§3) For evaluation, binding signals of the antibody sample to a certain protein were divided by the respective binding signals of the reference antibody MOR03207 resulting in a binding ratio (BR). The cumulative binding ratio (CBR) of all proteins except the controls (25 in total) was then calculated: CBR up to 150 indicates an IgG without detectable unspecific binding. Values above 150 indicates an IgG with increased unspecific binding compared to the reference antibody MOR03207.

Ovalbumin = experiment: as above
Protocol: as §2, §3

Lysozyme = experiment: as above
Protocol: as §2, §3

anti-human Fab (Dianova) = molecular target: T7, anti-human Fab (Dianova); experiment: as above
T7 construct: control of the 3P panel; it captures human IgG as such, so a ratio of 1 means a signal equal to that of MOR03207
Protocol: as §2, §3

Fibrinogen (b) [5] = molecular target: Fibrinogen (b) (bovine); experiment: as above
Protocol: as §2, §3

RNase A = experiment: Protein Panel Profiling (3P), MSD ECL, coated antigen, IgG 100 nM
Protocol: as §2, §3

Fibrinogen (b) [6] = molecular target: Fibrinogen (b) (bovine); experiment: as above
Protocol: as §2, §3

bovine transferrin = bovine transferrin (bovine, UniProt Q29443 20-704); experiment: as above
Protocol: as §2, §3

[7] = molecular target: T5, full-length human C3aR expressed on CHO …; experiment: FACS, CHO Flp-In cells expressing human C3aR, single IgG concentration
[8] = molecular target: T6, full-length human ChemR23 expressed on …; experiment: FACS, CHO Flp-In cells expressing human ChemR23, single IgG concentration
Human C1q = molecular target: T8, Human C1q (human, UniProt P02745 23-245; P02746 28-253; P02747 29-245); experiment: BLI (Octet), IgG captured via anti-hu Fab CH1 kappa/lambda on SA sensors, C1q titrated
T8 construct: mature; Plasma-derived complex; also called C1q protein; huC1q
T8 sequence (P02745 23-245, chain 1 of 3): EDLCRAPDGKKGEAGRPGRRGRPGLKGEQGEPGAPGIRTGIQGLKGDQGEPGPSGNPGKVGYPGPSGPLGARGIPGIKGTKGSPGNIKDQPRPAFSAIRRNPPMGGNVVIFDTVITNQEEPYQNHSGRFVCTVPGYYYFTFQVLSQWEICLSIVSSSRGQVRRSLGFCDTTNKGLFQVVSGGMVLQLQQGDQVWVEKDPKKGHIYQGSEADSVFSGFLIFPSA
T8 sequence (P02746 28-253, chain 2 of 3): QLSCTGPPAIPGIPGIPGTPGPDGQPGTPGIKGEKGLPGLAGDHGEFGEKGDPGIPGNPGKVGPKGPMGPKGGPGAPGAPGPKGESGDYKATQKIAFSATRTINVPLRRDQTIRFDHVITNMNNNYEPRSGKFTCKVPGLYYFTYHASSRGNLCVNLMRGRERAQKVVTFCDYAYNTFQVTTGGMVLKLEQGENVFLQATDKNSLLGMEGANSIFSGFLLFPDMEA
T8 sequence (P02747 29-245, chain 3 of 3): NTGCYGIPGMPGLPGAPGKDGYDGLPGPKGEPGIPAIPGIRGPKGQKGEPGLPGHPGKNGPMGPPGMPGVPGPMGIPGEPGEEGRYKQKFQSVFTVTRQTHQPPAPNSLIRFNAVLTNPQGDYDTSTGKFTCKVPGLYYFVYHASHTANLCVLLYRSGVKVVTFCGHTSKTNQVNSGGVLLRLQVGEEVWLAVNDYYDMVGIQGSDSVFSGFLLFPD
Description: 2.0 nm of IgGs diluted in Octet® buffer were captured onto anti-hu Fab CH1 kappa/lambda (BAC) immobilised onto streptavidin (SA) sensors (FortéBIO, Pall Life Sciences). […] All sensorgrams were fitted using Data Analysis Software 9 (FortéBIO, Pall Life Sciences) to determine the apparent affinity. The data was fitted with a steady state model.

Fibrinogen (b) (bovine), sequence (P02672 20-615, chain 1 of 3): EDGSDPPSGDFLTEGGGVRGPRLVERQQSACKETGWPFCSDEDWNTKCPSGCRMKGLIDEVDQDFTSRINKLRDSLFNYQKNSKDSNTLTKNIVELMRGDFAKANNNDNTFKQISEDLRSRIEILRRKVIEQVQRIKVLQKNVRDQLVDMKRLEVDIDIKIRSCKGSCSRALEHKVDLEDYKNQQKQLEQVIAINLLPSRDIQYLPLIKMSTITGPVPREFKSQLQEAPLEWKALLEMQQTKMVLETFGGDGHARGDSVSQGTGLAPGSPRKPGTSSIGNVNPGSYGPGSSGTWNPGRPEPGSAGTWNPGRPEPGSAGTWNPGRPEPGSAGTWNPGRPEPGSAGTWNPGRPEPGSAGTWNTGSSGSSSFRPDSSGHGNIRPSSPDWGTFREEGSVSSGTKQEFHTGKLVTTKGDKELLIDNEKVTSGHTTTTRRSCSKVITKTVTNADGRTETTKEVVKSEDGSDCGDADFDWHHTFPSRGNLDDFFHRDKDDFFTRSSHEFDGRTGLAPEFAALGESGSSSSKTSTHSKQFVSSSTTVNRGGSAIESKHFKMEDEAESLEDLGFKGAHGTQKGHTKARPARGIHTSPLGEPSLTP
Fibrinogen (b) (bovine), sequence (P02676 whole entry, chain 2 of 3, further chain): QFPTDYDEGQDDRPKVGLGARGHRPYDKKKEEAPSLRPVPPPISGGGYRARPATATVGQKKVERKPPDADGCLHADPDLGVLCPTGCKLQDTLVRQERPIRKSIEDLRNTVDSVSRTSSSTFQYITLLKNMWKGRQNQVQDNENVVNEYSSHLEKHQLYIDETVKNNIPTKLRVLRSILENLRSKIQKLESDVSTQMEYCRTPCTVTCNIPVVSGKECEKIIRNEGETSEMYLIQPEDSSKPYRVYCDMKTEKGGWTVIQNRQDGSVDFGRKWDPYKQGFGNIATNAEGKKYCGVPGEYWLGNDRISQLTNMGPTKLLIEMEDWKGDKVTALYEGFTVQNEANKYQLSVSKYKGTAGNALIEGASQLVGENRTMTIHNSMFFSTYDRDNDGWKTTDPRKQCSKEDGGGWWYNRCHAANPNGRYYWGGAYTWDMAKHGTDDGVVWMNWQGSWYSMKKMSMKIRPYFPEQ
Fibrinogen (b) (bovine), sequence (P12799 25-444, chain 3 of 3, further chain): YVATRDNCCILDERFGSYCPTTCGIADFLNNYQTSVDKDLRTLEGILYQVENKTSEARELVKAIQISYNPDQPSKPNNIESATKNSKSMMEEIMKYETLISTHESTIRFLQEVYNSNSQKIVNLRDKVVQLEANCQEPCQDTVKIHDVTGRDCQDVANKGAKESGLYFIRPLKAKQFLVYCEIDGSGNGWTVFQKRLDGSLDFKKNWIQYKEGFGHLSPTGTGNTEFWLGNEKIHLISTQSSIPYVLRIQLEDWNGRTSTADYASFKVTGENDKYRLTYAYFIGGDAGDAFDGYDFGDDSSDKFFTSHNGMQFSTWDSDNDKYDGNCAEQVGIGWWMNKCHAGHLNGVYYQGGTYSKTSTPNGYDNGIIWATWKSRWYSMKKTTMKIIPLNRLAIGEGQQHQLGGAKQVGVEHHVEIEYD
bovine transferrin, sequence (Q29443 20-704 limits assumed): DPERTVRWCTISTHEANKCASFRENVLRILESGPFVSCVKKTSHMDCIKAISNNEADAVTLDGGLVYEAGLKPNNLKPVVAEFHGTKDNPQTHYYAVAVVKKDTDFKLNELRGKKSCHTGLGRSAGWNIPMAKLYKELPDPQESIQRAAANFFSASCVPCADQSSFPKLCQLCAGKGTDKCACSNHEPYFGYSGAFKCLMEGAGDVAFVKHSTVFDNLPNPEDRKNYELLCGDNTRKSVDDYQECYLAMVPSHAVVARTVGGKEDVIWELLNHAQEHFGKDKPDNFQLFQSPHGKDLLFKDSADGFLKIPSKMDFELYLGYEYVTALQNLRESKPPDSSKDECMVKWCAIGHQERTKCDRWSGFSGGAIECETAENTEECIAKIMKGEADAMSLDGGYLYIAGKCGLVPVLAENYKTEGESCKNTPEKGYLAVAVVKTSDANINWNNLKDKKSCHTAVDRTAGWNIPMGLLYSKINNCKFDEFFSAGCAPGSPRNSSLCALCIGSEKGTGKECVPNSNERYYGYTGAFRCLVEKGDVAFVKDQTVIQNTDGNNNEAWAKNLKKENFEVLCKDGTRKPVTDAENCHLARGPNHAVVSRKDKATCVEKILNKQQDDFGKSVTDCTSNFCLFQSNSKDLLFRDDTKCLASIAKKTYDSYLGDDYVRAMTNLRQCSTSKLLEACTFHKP
Ovalbumin, sequence (P01012 2-386): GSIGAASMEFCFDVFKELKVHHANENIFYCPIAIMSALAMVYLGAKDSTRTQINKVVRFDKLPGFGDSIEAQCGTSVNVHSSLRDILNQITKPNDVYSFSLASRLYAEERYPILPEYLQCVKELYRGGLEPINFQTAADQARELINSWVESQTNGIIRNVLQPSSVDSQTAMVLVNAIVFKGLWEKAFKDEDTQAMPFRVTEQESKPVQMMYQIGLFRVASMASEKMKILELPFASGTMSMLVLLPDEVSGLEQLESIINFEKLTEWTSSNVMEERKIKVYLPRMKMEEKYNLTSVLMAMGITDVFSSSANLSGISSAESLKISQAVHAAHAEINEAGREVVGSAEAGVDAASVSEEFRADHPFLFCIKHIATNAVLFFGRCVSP
RNase A, sequence (P61823 27-150): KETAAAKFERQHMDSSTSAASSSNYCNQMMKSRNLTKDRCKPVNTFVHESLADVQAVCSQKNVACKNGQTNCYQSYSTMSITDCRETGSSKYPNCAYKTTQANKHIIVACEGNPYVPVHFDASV
Lysozyme, sequence (P00698 19-147): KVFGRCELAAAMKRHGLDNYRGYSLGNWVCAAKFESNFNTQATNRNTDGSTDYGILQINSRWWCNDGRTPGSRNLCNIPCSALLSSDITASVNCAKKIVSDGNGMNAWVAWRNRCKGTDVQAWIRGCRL

Binder	IgG concentration for 50% inhibition of CD11b upregulation, granulocytes, 15 nM human C5a [1]	IgG concentration for 50% inhibition of CD11b upregulation, granulocytes, 150 nM human C5a [1]	[%] inhibition at 1.2 nM C5a and 50 nM IgG, β-arrestin recruitment [2]	[%] inhibition at 11 nM C5a and 50 nM IgG, β-arrestin recruitment [2]	[%] inhibition at 100 nM C5a and 50 nM IgG, β-arrestin recruitment [2]	EC50 [3]	EC50 [4]	binding ratio (signal / signal of MOR03207) (Lectin)	binding ratio (signal / signal of MOR03207) (Ovalbumin)	binding ratio (signal / signal of MOR03207) (Lysozyme)	binding ratio (signal / signal of MOR03207) (anti-human Fab (Dianova))	binding ratio (signal / signal of MOR03207) (Fibrinogen (b) [5])	binding ratio (signal / signal of MOR03207) (RNase A)	binding ratio (signal / signal of MOR03207) (Fibrinogen (b) [6])	binding ratio (signal / signal of MOR03207) (bovine transferrin)	binding result [7]	binding result [8]	binding result (Human C1q)
B1	17 nM	114 nM	90.5%	75.2%	31.2%	1.2 nM	1.4 nM	1	1	1	1	1	6	2	9	no binding (tested: 300 nM)	no binding (tested: 300 nM)	no binding (tested: 500 nM (highest C1q concentration))
B2	12 nM	42 nM	91.9%	79.9%	41.8%	1.7 nM	1.1 nM	1	1	1	1	1	4	2	19	no binding (tested: 300 nM)	no binding (tested: 300 nM)	no binding (tested: 500 nM (highest C1q concentration))
